Test results as given in patent publication US20090018101.

Tests used:
[1] = test system: M.BcnIB (DNA cytosine-N4 methyltransferase); settings: natural cofactor AdoMet; R.BcnI protection assay, 37 C; analogs 3-5: <7, 6: 0, 7: 28, 8: 14
[2] = test system: M.SssI Q142A (DNA cytosine-C5 methyltransferase) Q142A (Spiroplasma sp.?); settings: natural cofactor AdoMet; R.BstUI protection assay, 37 C; analogs 5: 1.2, 7: 0.6
[3] = target: M.TaqI (DNA adenine-N6 methyltransferase) (UniProt P14385); settings: natural cofactor AdoMet; R.TaqI protection assay, 60 C 4 h; analogs 3: 10, 4: <5, 5: 80, 6: 10, 7: 1280, 8: 640, 9: 640; cofactor 10: 11 u/ug (1 h)
Chain of M.TaqI (DNA adenine-N6 methyltransferase) (P14385 whole entry): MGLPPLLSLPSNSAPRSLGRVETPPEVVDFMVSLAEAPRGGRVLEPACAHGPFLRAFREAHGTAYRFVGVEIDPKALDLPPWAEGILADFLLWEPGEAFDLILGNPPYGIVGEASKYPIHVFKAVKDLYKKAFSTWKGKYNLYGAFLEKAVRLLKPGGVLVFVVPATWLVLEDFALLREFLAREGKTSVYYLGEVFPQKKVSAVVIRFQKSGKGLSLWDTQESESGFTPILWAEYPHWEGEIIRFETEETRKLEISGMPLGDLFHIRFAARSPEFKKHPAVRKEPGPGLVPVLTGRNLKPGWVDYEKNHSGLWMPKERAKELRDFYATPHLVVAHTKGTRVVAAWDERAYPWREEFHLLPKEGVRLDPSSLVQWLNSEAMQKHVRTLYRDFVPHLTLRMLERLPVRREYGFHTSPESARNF

M.TaqI V21G V21G = settings: natural cofactor AdoMet; R.TaqI protection assay; analogs 3: 5, 4: <5, 5: 640, 6: 20, 7: 80, 8: 80, 9: 2560
[4] = test system: M.HhaI (DNA cytosine-C5 methyltransferase); settings: natural cofactor AdoMet; R.Hin6I protection assay, 37 C; analogs 3: <4, 4: 0, 5: 7, 6: <4, 7: 29, 8: <4
M.HhaI Q82A Q82A = target: T1, M.HhaI Q82A Q82A (UniProt P05102); settings: natural cofactor AdoMet; R.Hin6I protection assay; analogs 3: 7, 4: 0, 5: 29, 6: <4, 7: 58, 8: <4
T1 sequence: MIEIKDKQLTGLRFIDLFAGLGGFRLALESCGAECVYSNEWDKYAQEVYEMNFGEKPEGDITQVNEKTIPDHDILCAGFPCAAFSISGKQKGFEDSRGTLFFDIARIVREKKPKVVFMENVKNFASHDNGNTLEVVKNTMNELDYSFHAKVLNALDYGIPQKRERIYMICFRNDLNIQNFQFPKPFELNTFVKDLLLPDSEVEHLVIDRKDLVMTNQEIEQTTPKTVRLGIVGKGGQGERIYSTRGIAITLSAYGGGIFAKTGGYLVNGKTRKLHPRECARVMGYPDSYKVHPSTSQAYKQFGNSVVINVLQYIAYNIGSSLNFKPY

phage lambda DNA (48502 bp)
activity [1]: 444 u/µg
activity [2]: 20 u/µg
activity [3]: 41000 u/µg
activity (M.TaqI V21G V21G): 320 u/µg
activity [4]: 460 u/µg
activity (M.HhaI Q82A Q82A): 115 u/µg
